The record followed here is paper PMC2563146.

The experiment concerns the target Gal4-ARNT-ΔTAD (PL283), Gal DNA-binding domain fusion of ARNT deleted for the transactivation domain. The experiment in a line: two-hybrid.

Substance “full-length AHRdbd, 'fish' of the mammalian two-hybrid (pTgTAHRdbd, PL1548) (from UniProt P30561 10-848) (natural protein)” had a fold increase of luciferase activity with 1nM TCDD of 10 fold. In the case of “wild-type AHR, 'fish' of the mammalian two-hybrid (pTgTAHRs, PL1550) (from UniProt P30561 10-848) (natural protein)” it was 3 fold.
